The values that follow come from the domain aggregation screens of Martell et al. (2025).

This data set is described as follows: soluble fraction after stress (log2 fold change); higher = more stays soluble; pooled small domains, quantitative proteomics. To be noted: stress: 50 degC. In outline:
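Quantitative proteomics served as the high-throughput read-out for pooled custom libraries of small protein domains. Each was stressed at 50°C. Aggregation propensity is expressed as the base-two log fold change in soluble protein after stress. A higher value means a larger share of the protein remains in solution.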

Bounds are passed on as bounds.

On to “HMPDPLYLINGKIVNKSDFNNIDPRSIQSIEVLKANKALEAFGNDGKNGVIKITLKSSNDQM”, for which the “soluble fraction (log2)” value was 0.0749.
Then “HMSIGKEATPDDIVPNIRVYHATFGYGNVIKTDGVSHDKKAVVNFDSVGEKTLLLKFAKLILPY”, with 0.138.
For “HMQYQIITENGKQYYLYTVQKSEGFYSIGKRFEITNDEIIKANPEAALGLKLGQVLKIPVYK”, the “soluble fraction (log2)” value is -0.331.
The figure for “HMKGVPGIGDYVKLSGGSTVGKVLSISGKKAEVAFGLLRTTTELSKLEKVRKPKELLQSGVSS” is 0.269; for “HMYSQIGYGSSGSDVRKLQEILNGKGYNLSVDGQFGAKTKSAVRDYQSKNGLSVDGIVGVNTWGKLT” it is -0.0169.
Then “HMLPISGDDRDALDMAALILKQYDSLPILKEFANVVTKLQTVLDGVVSNSIEARRQMIQFEE”, with -0.0336; and “HMENLQLQQLVKGLPEKMQEIVILRFSQELTMREIADIVNLPMRTVQSQLRLALKILKKEMG”, with -0.447; and “HMGDAATVFRDHYNINSAAQAQAALDRKEALWEQPNPWRDSDNREVFDWAAQTVKDRFDSGKYKPK”, with 0.129.
The figure for “HMTARPTLEKLKYMIHEAGITENSLKVIVATKGHYGLDADISTYSDDFITRWIIPNWTKIVQTISNNK” is -0.348; for “HMEDVRSLTGPEKAAIILLSLGEEHGQGVWRMFDDEEVKEVSQIMANLGTISASVVEKLLVEFVSQMST” it is -0.873.
Consider “HMGTISKRINPSGTTVYRAVIRIRKNGYPNFTESRTFSKKSMAAEWVKRREAEIELNPDILFG”, for which the “soluble fraction (log2)” value was -2.13.
Turning to “HMTDFNTFSDAIIAAVGSRASGLKVVDNAVSVMVDVSGLNEDQRVEIEADVRAAAEHAGAQSVRIMLT”, the “soluble fraction (log2)” value was -0.438.
In the case of “HMVDYYEILGVSPDASRKDIENAWRKKMREAHPDMGGSEDKAQLLNEAHKVLSDESARAEYDASR”, the “soluble fraction (log2)” value was 0.103.
The figure for “HMQKLLGPFEDFVKIKLDKYPDTKAAQMHDWLKEHYPDFPEVTPKTVYNFVMYVRQRHNIPIPD” is -0.0276.
Then “HMNYTALLNNFSENMKKRRVELSLSQKELASIVGVSVRTIQNYENKKTIPTSAVMESISIALDMGLEKMID”, with -1.27; and “HMQDEAQLSMSNKYIFEGNSIVKDNFIEAEKKYRLGVSAKPNNAVGSYNLANAYYNSKLYDEAMLRLL”, with 0.272.
“HMDSTLDLVATQGGRLDQVLAEMIPEHSRNRLQHWIKAGRVLVDGQPVLEPKHKIYGGEDLAVRVD”: the “soluble fraction (log2)” value amounted to 0.278.
The figure for “HMSVALSENIKTRRKALKMSQEYVAEQLDISRQAVAKWEAGKSEPTTENLVKLAALFEMSVSELVE” is -0.369.
Then “HMLQKEVHQQIQQALRALPYHQRTAIVLYYYEGMSVKEIAQATGSMQGTVQSRLFFARKKLRPILESILKK”, with -0.453; and “HMKKNLELGLLPHEVKSILGEPDFIDTITDIDGIRYDMWSYTKLNVTKRLYFEDLFLVRMEE”, with -1.43.
The figure for “HMRIQTVDYNTFISMVEDGKVDAAEIQQQENRILFSDQDQKVYKTAMVPDDDLTQRLLDAGVSTNG” is 0.274.
For the sequence “HMSVPRVWTDIQGRRVKGDFEGLRGDLVVLRVGGKSYAFPLVRLIASDQAYARSLVAGNPSK”, the “soluble fraction (log2)” value was -0.499.
Then “HMQSKDDLLDTFRVVKGNAALLNDQNKKLIRSLKVSSFGFTGITDQAAEVKKEMPDVLLEKASIEDILF”, with -0.12; and “HMVSSVAAISQMIDEKDRYTSEHSHRVAEYARLIGAHMGFAGEELDSLYRSALLHDIGKIAVPDAILNK”, with -0.338; and “HMSEHLTLVVSDEDAGHRVDQFLVSRLAHMTRSQIQKLIKDGQVTIDTKLVRASTTVHTDNIVTIEFPPAV”, with -0.505.
“HMKKITTANPLDINRATLAQLDTLPGIGPVTAERIIAYRSKVGRINSLDELKKISGLGGMKFEEIKPLLRV”: the “soluble fraction (log2)” value was 0.042.
For the sequence “HMEVSTRQVRAALRDIIEAEDKKRPLSDEAITARLREQGLPVARRTVAKYREQMGILAARLRK”, the “soluble fraction (log2)” value is -0.309.
The figure for “HMGTRTILGIDPGSRKTGFGIIRLDGSRTHYVSSGVIRIPDTALPERLKIIFASLNEIIQQFQPQEV” is 0.0673.
The figure for “HMLNAPFGFRIEDDTLIPIPEEAKVVRQIFRYYLQGMGFGKIAQELNGQDVPGKPWGKERIKYILSNEKYI” is -2.09; for “HMSISEADAKKIALEKVPGATDSNLRIKTDYDDGIMKYEVKIVYNEMKYEFDIDAATGTILEWESESVY” it is -0.659.
As to “HMGLGQRIKARREALGLSQARLGEAVGVSLQAVSNWERDEYLPDTARLPLIARALGLTPGQLME”, the “soluble fraction (log2)” value came to 0.0172.
Then “HMKTRIQDLRKELGVTQSELADAVDVTRQTIISLEGGRYKASLVLAHKLAQFFHVTIEELFIFD”, with -2.21; and “HMDKSHYEELGVSRTATHAEIRRAYRHLMRTLHPDSNDGRVDAVRITKVNEAWNVLSQSSSRNAYDKSQV”, with -0.38.
In the case of “HMFMNFAEHLMALRKQRGWSQEELGSQIGVTRQTVSKWEMGQSTPELEKLVELSRLFGMSIDQLVGL”, the “soluble fraction (log2)” value is 0.0203.
Then “HMDVSEITTIKWIIKETKLGINEKILIYVNSKNFTVETLMEGFEIMSKYLVENVSSDKIVYIKN”, with -0.179; and “HMKEVKAPMPGMVLRVEVAPGQEVQEGDPLLVLEAMKMENNLKSPASGTIKSVHVEAGKAVEKGAVLVVF”, with -0.0671; and “HMILEEIIGKNIARYREAAGLTQATLAEKIGISTAFVSRVERGQKKMKVETLYATAKVLNVSVDALLS”, with -2.1.
Then “HMGSLQPLLLAAIDALQTHIRSGLPFRVEERLAELDQFRTELQNGSVPPQRGVNRLWAFYEDEFRL”, with -0.798; and “HMRKKIIAQTLEEIRKSKGYSQKQVAAFIKVKPTTYNTYESGRTEPPAEILVRLSYLYRTPVDTLVQRDR”, with -2.07.
With “HMKIAEALNLRGDADSYERQEAIWLLEHIVGMSALELKYRGEQDLTEDQLQQYRSGLQRLEQGEPLAYVIG”, the “soluble fraction (log2)” value was -0.396.
For the sequence “HMGIAEGSSVFVRVLAAEDGGRYTVSFAGRRFSVLSRQALGIGSAFRADVKVEKGQVLLVPR”, the “soluble fraction (log2)” value is -2.37.
Turning to “HMYFFNTFTQRLFDNPELTQEEAIRQMYPGISGVQTAEKLQENFMADVYIQAAIRQEIVVQLIR”, the “soluble fraction (log2)” value is -0.529.
Then “HMSWEQELIEKANEIIDLYPEKRSALGPLLYLAQERDGYISDESIVEISNLVGITEVQVKSVASFYSMYK”, with -3.57.
For “HMEITTLTGVLGAGRLDSALAAALPQYSRARIQALISDAALRINGQVVADAGSKKMSGQTFELNIPAPVP”, the “soluble fraction (log2)” value was -0.31.
For “HMVVANTAIKSELQNIVANENKQAPLSDQKIVDQLKQAGFDISRRTVVKYRDALGIPTSRNRKR”, the “soluble fraction (log2)” value was -0.131.
With “HMELGRQDSAQLGRWAAGILAKNGKKITGRTMEFFLSRTGDDMENISSELEKLISYTLGREVITEEDIEAV”, the “soluble fraction (log2)” value is -0.351.
Then “HMNTKDRIKQLAAQRKITIAELERKLHIANGTIGKWDKQNPSIEPLKKLADYFGVTTDYLLGRT”, with 0.162.
On to “HMDAVTYAKGSSGETVREIQQLLLDWGYYSGEVDGIFGSRTEDAVEYFQRKNGLTVDGKVGPATLEALGIS”, for which the “soluble fraction (log2)” value was -0.0183.
On to “HMQDLVAVPALTGLTENDAINKAKANNLIAVVSEYKTENSVEPGKVLEQDPESSTEVKKGTIIKLVVS”, for which the “soluble fraction (log2)” value was no less than 0.62.
Then “HMQMEYEKAIAYILDKIKSGELSIGSKLPAERVIADTLHIGRNSTREALSILHGMGMVDRVHGSGNYISEH”, with -0.421; and “HMIFRPALITDLDAVERHYTELLTREAETGRSSTNWSLGVYPTRQTATAAQAAGTLWVLEREGQVVASVI”, with -0.245.
The figure for “HMRVSNADALIGRRGKANSDIRRGDYGWVAIDGDVWKSKLADDITEDIPMGAIVEVLSRDSIILTVKP” is -0.324; for “HMRTSPGADYEKTYYTIQSGDNLGAIAEKMGVSVADLKDWNDISGTKIYAGKKLVIYVKKGST” it is 0.183; for “HMLKGTVKWFNESKGFGFIEQEEGKDVFVHYSAITGSGFKTLNEGDKVQFEIVDGPKGPAAANVSK” it is -0.0666.
The figure for “HMNIDVAAEKQQLGPNADQIVKGTVTWMQGLVAKGIWSETDFEEGKIFTATADGINAINKIRRYYGEQT” is -0.0611; for “HMVREVSYDQFLHFVEAKQVGMVYQDGESLMFTLKEDVEKEWGVTAYKTGLWPDANLTDRLLDAGVVFS” it is -0.715; for “HMKNNITFSEFLHEVDNGRVIKVNIQGNNITGILADGKSFNTYTPNDPSLIEKLTSKGVSISATPI” it is 0.0489.
Regarding “HMDAEELNSKAKDEFTWLEDDESETNLEYRKMVSSEDMAIVAKVAPALAAKLKYQLAHAATNMV”, the “soluble fraction (log2)” value stood at 0.0207.
Take “HMEAEPRLLDLPPGTRAGRLDKVLAQLLPEHSRSRLQGWIERGGVLVNGKEASVRQVVGPGDQLTVWEEAA”: the “soluble fraction (log2)” value is -0.0918.
Take “HMETQVKVPNVVGMTQSKAIAKLKESKLDYEVQEQKHDGDKGKVVDQSEAEGTYVDRGTKVIIYVSTGE”: the “soluble fraction (log2)” value is -0.088.
Turning to “HMDSQSVFADLVKSLSQKIASIPVWFEYTKNEQYDLISSYVSAKLKDLGVEFSQEEKEKFITMFMNS”, the “soluble fraction (log2)” value is -0.267.
As for “HMDNTFEEVKEKLLDLLKERPLTPAEVSKRMEEDKNILAQVIQYLLEEEIIKTEDGMLSKVIG”, the “soluble fraction (log2)” value is -0.0569.
Then “HMIQHFARKRRQLELAVQRLSGRMAETNGQVTADMQRLIQQVKALVAELSHVFSRAYLRRVLGGVALVIGS”, with -0.104.
Consider “HMERLLVSKINGMITEAKVSVEDVVKVVASRGHYPEVKSIDEYPDDFLSRWVVPNFKKIVEMINANKEA”, for which the “soluble fraction (log2)” value worked out at 0.187.
In the case of “HMQGYELKMYVTPDTKYSVAVYDAKNEMVSYTMGFSAKAPFGQEGEVLETVKLEFDKLAVGNYELKYWI”, the “soluble fraction (log2)” value stood at 0.314.
Turning to “HMEDGEVTVPDLRGLTIKEAGTILEKLGLHLSPVGTGLAVRQDVAPGSKVARDTTITVEFEPPDIQVLR”, the “soluble fraction (log2)” value worked out at 0.103.
The figure for “HMEATEFYLEDLTGQMYNDVVNDEKYAGKIVFEKEEVQSDGEEAIGQILNQRPAGNMNVRIGTTVTLVVNA” is -0.0405; for “HMARPLLSPREQDVLALIARGFSYSEVARLQAVTVHTIRTHIRNLYAKLSVHSKTEAVFEATRMGLLP” it is -1.63; for “HMSKMTLGENLRLLRREKGLSQEQVAQTLFVARQTISKWENGQAEPGVESLKALAKLYGVSLDRLVGA” it is -0.0483.
